Reference: the nanobody polyreactivity screen of Harvey et al. (2022)

Assay: yeast display, Sf9 membrane polyspecificity reagent, FACS + sequencing; frameworks hold sequencing errors
Summary of the method: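 Nanobodies from a synthetic yeast display library (Saccharomyces cerevisiae BJ5465), induced 36–48 hours with galactose, were stained 1 hour at 4 °C with 10% biotinylated, detergent-solubilized Sf9 membrane reagent, enriched on streptavidin microbeads, then FACS-sorted. Anti-HA (expression) and streptavidin (reagent binding) fluorescence set low and high (top ~1%) gates. Polyreactivity labels come from the gate of origin. Genes were colony-PCR amplified, MiSeq 2 × 250 sequenced and filtered by CDR length.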

Sequence | polyreactivity (PSR sort gate)
QVQLVESWGGLVQAGGSLRLSCAASGRIINQYAMGWYRQAPGKERELVAAITLNGGSTYYADSVKGRFTISRDNAKNTVYLQMNSLKPEDTAVYYCNNRYTHYSRKGVSYPKYDYWGQGNQVTVSS | high polyreactivity
QVQLVESGGGLVQAGGSLRLSCAASGSIFQYYGMGWYRQAPGKERELVAAISRGGSTNYADSVKGRFTISRDNAKNTVYLQMNSLKPEDTAVYYCNARTYRKAYSGYNYWGQGTQVTVSS | high polyreactivity
QVQLVESGGGLVQAGGSLRLSCAASGRIFNAYAMGGYRQAPGKERELVAAISGGGRTYYADSVKGRFTISRDNAKNTVYLQMNSLKPEDTAVYYCAADSPTQSTLGKYDYWGQGTQVTVSS | high polyreactivity
QVQLVESGGALVQAGGSLRLSCAASGRTYWSYNIGWYRKAPGKERELVAAITSSGGTTNYADSVKGRFTISRDNAKNTVYLQMNRLKREDTAVYYFAAYSWYFGSRYDYWGQGTQVTVSS | low polyreactivity
QVQLVESGGGLVQAGGSLRLSCAASGRTFSRNAKGWYRQAPGKERELVAAISWSGGSTYYADSVKGRFTISRDNAKNTVYLQMNSLKPEDTAVYYCAKVLGRTYNYWGQGTQVTVSS | high polyreactivity
QVQLVESGGGLVQAGGSLRLSCAASGSIFYQYAMGWNRQAPGKERELVAVINRSGSSTYYADSVKGRFTISRDNAKNTVYLQMNSLKPEDNAVYYCAAASKYSEYNYWGQGTEVTVSS | high polyreactivity
QVQLVESGGGLDQAGGSLRLSCDASGGTFLSYAMGWYRQAHGKERELVARINSGSSTYYADSVKGRFTISRDNAKNTVYLQMNSLKPEDTAVYYCATRWVSRTHGYWGQGTQVTVSS | low polyreactivity
QDQLVESVGGLVQAGGSLRLSCAASGSTIVRNAMGWYRQPPGKERELVAAISVDSGSTYYADSVKGRFTISRDNAKNTVYLQMNSLKPEDTAVYYCAADGTRGQEYDYWGQGTLVTVSS | low polyreactivity
QVLRVESGGGLVQAGGSLRLSCSASGFIFRPNAMGWYRQAPGKERELVARITYRGGSTYYADSVKGRFTISRDNAKKTVYLQMNSLKPEDTEVYYCAARAVTYAGYTYNYWGQGSQVTVSS | high polyreactivity
QVQLVESGGRLVQAGGSLRLSCAASGSIFYYYAMGWYRQAPGKERELVAAINGGDTYYADSVKGRFTISRDNAKNTVYLQMNSLKPEDTAVYYCAAEGVTVEWDYDYLGQGTQVTVSS | low polyreactivity
QVQLVESGGGLVQAGGSLRLSCAASGRIFSRNAMGWYRQAPGKERELVAGISARGGRTYYADSVKGRFTISRDNAKNTVYLQMNSLKPEDTAVYYCNARTGYQDGTYGNDYWGQGTQVTVSS | high polyreactivity
QVQLVESGGGLVQAGGSLRLSCAASGRIFYWNTMGWYRQAPGKEREFVAAITYGGGRTYYADSVKGRFTISRDNAKNTVYLQMNSLKPEDTAVYYCARRIPTLYLDYDYCGQGTQVTVSS | high polyreactivity
QVQLVESGGGLVQAGGSLRLSCAASGRTFTVYAMGGSRQAPGKERELVAGIRRGDSTYYADSVKGRFTISRDNAKNSVDFQMNSLKPEDTAVYYCNARSSGRSYYYWGQGTQVTVSS | high polyreactivity
QVQLVESGGGLVQAGGSHRLSCAASGYTFARNAMGCDRQAPGKDRELVAAINWSGTNTYYADSVKGRFTISRDSAMNTVYLQMNSLKPEDTAVYYCAKDLYFSGYEFDYWGQGTQVTVSS | low polyreactivity
QVQLLESGGGLVQAGGSLRLSCAASGSTIVSYDMGWYRQAPGKERELVAAITYDGDSTYYADSVKGRFTISRDNAKNTVYLQMNSLKPEDTAVYYCAAEPGEDLKFRGGFEYWGQGTQVTVSS | low polyreactivity
QVQLVESGGRLVQAGGSLRLSCAASGITFIDYAMGWYRQAPGKERELVAAIRYSAGSTYYADSVKGRFTISRDNAKNTVYLQMNSLKPEDTAVYYCARTTPSGRQYRRYDYWGQGTQVTVSS | low polyreactivity
QVQLVESGGGLVQAGGSLRLSCAASGRIFSLYAMGWYRQAPGKEREFVAAISKSSGGTYYADSVKGRFTISRDNAKNTVYLQMNSLKPKDTAVYYCNARFVIGWVRKLDYWGQGTQVTVSS | high polyreactivity
QVQLVESGGGLVQAGGSLRLSCAASGLIFYLYAMGWYRQQPGKERELVARMSRGGSTNYADSVKGRFTISRDNAKNTVYLQLNSLKPEDTAVDYCAADWFVSLGEMYYWGQGTQGTVSS | low polyreactivity
QVQLVESGGGLVQAGGSLRLSCADSGRTIGLNGMGWYRQAPGKERELVAGISWTGGSTNYADSVKGRFTFSRDNEKNTVYLQINSLKPEDTAVYYCAADFVYYVVNDFGWSYAYEYWGQGTQVTVSS | low polyreactivity
QVQLVESGGGLVQAGGSLRLSCAASGFIFSFYAMGWYRQAPGKERELVAAITSSGATTYYADSVKGRFTISRDNAKNTVYLQMNSLKPEDTAVYYCNAVYRRDTGYYRYYYWGQGTQVTVSS | high polyreactivity
QVQLVESGGGLVQAGGSLRLSCAASGFIFSQYAMGWYRQAPGTERELVAVISKSSGSTYYADSVKGRFTISCDNAKNTVYLQMNSLKPEDTAVYYCNRRYYYRTYDYWGQGTQVTVSS | high polyreactivity
QVQLVESGGGLVQAGGSLRLSCAASGSIDGYAMGWYRQAPGKERELVAAISKGGGNTYYADSVKGRFTISRDNAKNTVYLQMNSLKPEDTAVYYCAARRQIIWGQGTQVTVSS | high polyreactivity

Sequence | polyreactivity (PSR sort gate)
QVQLVESGGGLVQAGGSLRLSCAASGFTFGRNAMGWYRQAPAKERELVAAISYDGTRTYYADSVKGRFTISRDKAKNTVYLQMNSLKPEDTAVYYGNAVWVRGFYRVYDYWGQGTQVTVSS | high polyreactivity
QVQLVESGGGLVQAGGSLRLSCAASGITFYGNAMGWYRQAPGKERELVAAITYSGTSTYYADSVKGRFTISRDNAKNTVYLQMNSLKPEDTAVYYCAADEWYLVDYWGQGTQVTVSS | low polyreactivity
QVQLVESGGGLVQAGGSLRLSCAASGSTFNGYVMGWYRQAPGKERELVAAISRSGGSTYYADSVKGRFTISRDNAKNTVYLQMYSLKPEDTAVYYCAKGGYQHYWGQGTQVTVSS | high polyreactivity
QVQLVESGGGLVQAGGSLRLSCAASGSIFWGNAMGWYRQAPGKERELVAAITSGGSTNYADSVKGRFTISRDNAKNTVYLQMNSLKPEDTAVYYCIADVARVPFEFDYWGQGTQVTVSS | low polyreactivity
QVQLVESGGGLVQAGGSLRLSCAASGITFPRNAMGWYRQAPGKERELVAAISARGGNTYYADSVKGRFTISRDNSKNTVYLQMNSLKPEDTAVYYCNALGSSYSEPSEYDYWGQGTQVTVSS | low polyreactivity
QVQLVESGGGLVQAGGSLRLSCAASGFTFEYNALGWYRQAPGKERELVAAISSGGRTNYADSVKGRFTISRDNAKNTVYLQMNSLKPEDTAVYYCAKRLGVRPAFYYWGQGTLVTVSS | high polyreactivity
QVQLVESGGGLVQAVGSLRLSCAASGSTFNRYALGWYRQAPGKERQLVAAITVRGNTYYADSVKGRFTISRDNAKNTVYLQMNSLKPEDTAVYYCAARIYYLYKDRRLGYYWGQGTQVTVSS | high polyreactivity
QVQLVESGGGLVQAGGSLRLSCAASGSIFSANAMGWYRQAPGKERELVAAITSGDSTKYADSVKGRFTISRDNAKNTVYLQMNSLKPEDTAVYYCAVDRGEYKNRVGEEYWGQGTQVTVSS | low polyreactivity
QVQLVESGGGLVQAGGSLRLSCAASGSIFDVNAMGWYRQAPGKERELVAAISDSGGSTFYADSVKGRFTISRDNAKNTVYLQMNTLKPEDTGVYYCNTEDFFNVPEMDSWGQGTQVTVSS | low polyreactivity
QVQLVESGGGLVQAGGSLRLSCAASGRIFAQYAMGWYRQAPGKDRELVADISSGVRTYADSVKGRFTISRDNAKNTVYLQMNSLKPEDTAVYYCNAYYIIFTRNDYWGQGTQVNVSS | low polyreactivity
QVQLVESGGGLVQAGGSLRLSCAASGSIFDYNAMGWYRQATGKERELVAAISSDGSTYYADSVKGRFTISRDNAKNSVYLQMNSLKPEDTAVYYCAADSVYSWSDYWGQGTQVTVSS | low polyreactivity
QVQLVESGGGLVQAGGSLRLSCAASGSIFYVNTIGWYRQAPGKERELVAGITSRGGSTYYADSVKGRFTISRDNAKNTVYLQMNSLKPEDTAVYYCAKRAYGTALYRGYGYWGQGTQVTVSS | low polyreactivity
QVQLVESGGGLVQAGGSLRLSCAASGRIFLRNAMGWSRQAPRKERELVAAISSSGGRTYYADSVKGRFTISRDNAKNTVYLQMNSLKPEDTAVYYCNARWHGSFDYWGQGTQVTVSS | low polyreactivity
QVQLVESGGGLVQAGGSLRLSCAASGFTFYRYTMGWYRQAPGKERELVAAITNTDSTNYADSVKGRFTISRDNAKNTVYLQMNSLKPEDTAVYYCNAAYVWYRIFVRRDYWGQGTQVTVSS | high polyreactivity
QVQLVESGGGLVQAGGSLRLSCAASGLTFYHYDMGWYRQAPGKERELVAAINFSAGITYYADSVKGRFTISRDNAKNTVYLQMNSLKPEDTAVYYCAAEPEWWWRGYGYWGQGTQVTVSS | low polyreactivity
QVQLVESGGGLVQAGGSLRLSCAASGSIFSYYAMGWYRPAPGKERELVAAISWSGGSTYYADSVKGRFTISRDNAKNTVSLQMNSLIPADTAVYYCAAGVTYEKQTKYYYWGQGTQVTVSS | high polyreactivity
QVQLVESGGGLVQAGGSLRLSCAASGSIFLAYDMGWYRQAPGKERELVAAISYTGGSTNYADSVKGRFTISRDNAKNTVYLQMNSLKPEDTAVYYCNTAGDLWIDYGYWGQGTQVTVSS | low polyreactivity
QVQLVESGGGLVQAGGSLRLSCAASGSTIRDYAMGWYRQAPGKDRELVAVIDNSGGRTYYADSVKGRFTISRDNAKNTVYLQMNSLKPEDTAVYYCNTRRIAQYGYWGQGTQVTVSS | high polyreactivity
QVQLVESGGGLVQAGGSLRISCAPSGIIFGYNVMGRYRQAPGKERELVAAISGSGASTYYADSVKGRFTISRDNAKNTVYLQMNSLKPEDTAVYYCARYRGYWGRYYGVDYGYWGQGTQVTVSS | high polyreactivity
QVQLVESGGGLVQAGGSLRLTCAASGIIFYPYAMGWYRQAPGKERELVAAISIGGGSTYYADSVKGRFTISRDNAKNTVYLQMNSLKPEDTAVYYCAAGTPYGILGYYYWGQGTQVTVSS | low polyreactivity
QVQLVESGGGLVQAGGSLRLSCAASGSTSLSYVMGWYRQAPGKERELVASITSSGGSTYYADSVKGRFTISRDNAKNTVYLQMNSLKPEDTAVYYCNARSYIDPFSPTSYYRYYWGQGTQVTVSS | high polyreactivity
